# Results: the Human Domainome abundance scans (Beltran et al. 2025)
# ± gives the uncertainty stated by the source.
# B1: Protein C-ets-1, residues 55 to 135; numbered along this chain, P14921 (parent)
# chain: GFTKEQQRLGIPKDPRQWTETHVRDWVMWAVNEFSLKGVDFQKFCMNGAALCALGKDCFLELAPDFVGDILWEHLEILQKE
# Variants of: B1
# Assay: abundance fitness (aPCA) (normalised: wild type 0, dead -1); higher = more abundant; growth selection in yeast, the domain comes from the species named
# Conditions: Homo sapiens
row,Variant,abundance fitness
1,GFTKEQQRLGIPKDPRQWTETHHRDWVMWAVNEFSLKGVDFQKFCMNGAALCALGKDCFLELAPDFVGDILWEHLEILQKE [V23H],-0.838 ± 0.24
2,GFTKEQQRLGIPKDPRQWTETHVRDWVMWAVNEFSLKGVDFQKFCMNGAALCALGKDCFLELAPEFVGDILWEHLEILQKE [D65E],0.01 ± 0.055
3,GFTKEQQRLGIPKDPRQWTETHVRDWVMWAVNEFSLKGVDFQKFCMNGAALCALGKDCFLELAPDIVGDILWEHLEILQKE [F66I],0.021 ± 0.063
4,GFTKEQQRLGIPKDPRQWTETHVRDWVMWAVNEFSLKGVDFQKFCMNGWALCALGKDCFLELAPDFVGDILWEHLEILQKE [A49W],-0.3 ± 0.032
5,GFTKEQQRLGIPKDPRQWTETHVRDWVMWAVNEFSLKGVDFQKFCMNGAALCALGKDCFLELAPDFVGDILWEHYEILQKE [L75Y],-0.62 ± 0.14
6,GFTKEQQRLGIPKDPRQWTETHVRDWVMWAVNEFSLKGVDFQKFCMNGAALCALGKDCFLELAPDFVGDILWEHLEIIQKE [L78I],-0.098 ± 0.078
7,GFTKEQQRLGIPKDPRQWTETHVRDWVMWAVNEFSLKGVDFQKFCMNGAALCALGKDCFLELAPDFVGDILWESLEILQKE [H74S],-0.08 ± 0.04
8,GFTKEQQRLGIPKDPRQWTETHVRDWVMWAVNEFSLKGVDFQKFCMNGAALCALGKDCTLELAPDFVGDILWEHLEILQKE [F59T],-0.963 ± 0.096
9,GFTKEQQRLGIPKDPRQWTETHVRDWVMWAVNEFSLKGVDFQKFCMNGAALCALGKDCELELAPDFVGDILWEHLEILQKE [F59E],-0.944 ± 0.1
10,GFTKEQQRLGIPKDPRQWTETHVRDWVMWAVNEFSLKGVDFQKFCMCGAALCALGKDCFLELAPDFVGDILWEHLEILQKE [N47C],-0.223 ± 0.062
11,GFTKEQQRLGIPKDPRQWTETHVRDWVMWAVNEFSLKGVDFQKFCMNGAALCARGKDCFLELAPDFVGDILWEHLEILQKE [L54R],-0.238 ± 0.028
12,GFTKEQQRLGIPKDPRQWTETHVRDWVMWAVNEFSLKGVDFQKFCMNGAALCALGKDCFLELAPDFVGDILWHHLEILQKE [E73H],-0.315 ± 0.12
13,GFTKEQQRLGIPKDPRQWTETHVRDWVMWAVNEFSLKLVDFQKFCMNGAALCALGKDCFLELAPDFVGDILWEHLEILQKE [G38L],-0.492 ± 0.038
14,GFTKEQQRLGIPKDPRQWTETHVRDWVMWAVNEFSLKGVDFQKFCMNGAALCALGKDCFLELAPDFVGDILWEHLIILQKE [E76I],-0.267 ± 0.13
15,GFTKEQQRLGIPKDPRQWTETHVRDWVMWAVNEFSLKGVDFQKFCMNGAALCALGKDCFLELAPDFIGDILWEHLEILQKE [V67I],-0.159 ± 0.1
16,GVTKEQQRLGIPKDPRQWTETHVRDWVMWAVNEFSLKGVDFQKFCMNGAALCALGKDCFLELAPDFVGDILWEHLEILQKE [F2V],-0.289 ± 0.047
17,GFTKEDQRLGIPKDPRQWTETHVRDWVMWAVNEFSLKGVDFQKFCMNGAALCALGKDCFLELAPDFVGDILWEHLEILQKE [Q6D],-0.277 ± 0.063

row,Variant,abundance fitness
1,GFTKEQQRLGIPKDPRQWTETHVRDWVMWAVNEFSLKGVDFQKFCMNGAALCALGKDCFLHLAPDFVGDILWEHLEILQKE [E61H],-0.089 ± 0.11
2,GFTKEQQRLGIPKDPRQWTETHVRDWVMWAVNEFSLKGVSFQKFCMNGAALCALGKDCFLELAPDFVGDILWEHLEILQKE [D40S],-0.164 ± 0.037
3,GFTKEQQRLGIPKDPRQWTETHNRDWVMWAVNEFSLKGVDFQKFCMNGAALCALGKDCFLELAPDFVGDILWEHLEILQKE [V23N],-0.858 ± 0.24
4,GFTKEQQRLGIPKDPRQWTETHVRDWVMWAVNEFSLKCVDFQKFCMNGAALCALGKDCFLELAPDFVGDILWEHLEILQKE [G38C],-0.334 ± 0.071
5,GFTKEQQRLGIPKDNRQWTETHVRDWVMWAVNEFSLKGVDFQKFCMNGAALCALGKDCFLELAPDFVGDILWEHLEILQKE [P15N],-0.717 ± 0.21
6,GFTKEQQRLGIPKDPRQWTETHVRDWVQWAVNEFSLKGVDFQKFCMNGAALCALGKDCFLELAPDFVGDILWEHLEILQKE [M28Q],0.014 ± 0.049
7,GFTKEQQRLGIPKDPRQWTETHVRDWVMWAVNEFSLKGVGFQKFCMNGAALCALGKDCFLELAPDFVGDILWEHLEILQKE [D40G],-0.546 ± 0.041
8,GFTKEQQRLGIPKRPRQWTETHVRDWVMWAVNEFSLKGVDFQKFCMNGAALCALGKDCFLELAPDFVGDILWEHLEILQKE [D14R],-0.684 ± 0.036
9,GFTKEQQRLGIPKDPRQWTETDVRDWVMWAVNEFSLKGVDFQKFCMNGAALCALGKDCFLELAPDFVGDILWEHLEILQKE [H22D],-0.047 ± 0.066
10,GFTKEQQRLGIPKDPRQWTETHVRDWVMWAVNEFSLKGVDFQKFCMNVAALCALGKDCFLELAPDFVGDILWEHLEILQKE [G48V],-0.805 ± 0.073
11,GFTKEQQRLGIPKDPRQWTETHVRDWVMWAVNEFSLKPVDFQKFCMNGAALCALGKDCFLELAPDFVGDILWEHLEILQKE [G38P],-0.172 ± 0.044
12,GFTKEQQRLGIPKDPRQWTETAVRDWVMWAVNEFSLKGVDFQKFCMNGAALCALGKDCFLELAPDFVGDILWEHLEILQKE [H22A],-0.33 ± 0.032
13,GFTKEQQRLGIPKDPRQWTETHVRDWVMWAVNEFSLKGVDFQKFCMNGAALCALGKDCFLELQPDFVGDILWEHLEILQKE [A63Q],-0.282 ± 0.15
14,GFTKEQQRLVIPKDPRQWTETHVRDWVMWAVNEFSLKGVDFQKFCMNGAALCALGKDCFLELAPDFVGDILWEHLEILQKE [G10V],-0.2 ± 0.032
15,GFTKEQQRLGIPKDPRQWTETHVRDWVMWAVNEFSLKGVDFQKFCMNGAALCALGKDCFLELAPDFVGDILWEHLECLQKE [I77C],-0.021 ± 0.053
16,GFTKEQQRLGIPKDPVQWTETHVRDWVMWAVNEFSLKGVDFQKFCMNGAALCALGKDCFLELAPDFVGDILWEHLEILQKE [R16V],-0.055 ± 0.033
17,GFTKEQQRLGIPKDPRQWTETHVRDWVMWAVNEFSLKGVDFQKFCMNGAALCALGKDCFLELAPDFVHDILWEHLEILQKE [G68H],-0.541 ± 0.15
